This is an account of results in patent WO2022210830A1 (dated 2022).

Like-named read-outs stand apart in the source and are kept apart here.

Assay [1] addresses T1, SARS-CoV-2 spike protein (SARS-CoV-2, UniProt P0DTC2 14-1273). Briefly: competition ELISA: antibody + biotin-ACE2 on immobilised spike.
The target of assay [2] is T2, SARS-CoV Receptor binding domain (RBD) protein (SARS-CoV, UniProt P59594 306-527). Briefly: ELISA, immobilised SARS-CoV RBD.
Assay [3] has as its target T3, SARS-CoV-2 N-terminal domain (NTD) protein (SARS-CoV-2, UniProt P0DTC2 14-305). Briefly: ELISA, immobilised NTD.
Assay [4] addresses T3, SARS-CoV-2 N-terminal domain (NTD) …. Briefly: ELISA, immobilised domain protein, 200 ng/ml antibody.
Assay [5] has as its target T1, SARS-CoV-2 spike protein.
The target in assay [6] is T2, SARS-CoV Receptor binding domain (RBD) …. Briefly: ELISA, immobilised domain protein, 200 ng/ml antibody.
In assay [7] the target is SARS-CoV-2 spike protein, Wuhan type (WT), on pseudotype virus SARS-CoV-2 St19pv (SARS-CoV-2, UniProt P0DTC2 14-1273). Briefly: cell-based or functional assay.

B1: 0210-30L (antibody, V domains shown)
VH: QVQLVQSGAEVKKPGSSVKVSCKASGGTFSSYAINWVRQAPGQGLEWMGRIIPILGRANYAQKFQGRVTITADKSTSTAYMELSSLRSEDTAVYYCARNPEEFSSSYVYYYYMDVWGKGTTVTVSS
VL: QSALTQPRSVSGSPGQSVTISCTGTSSDVGGYSYVSWYQQHPDKAPKLMIYDVSKRPSGVPDRFSGSKSGNTASLTISGLQAEDEADYYCCSYAGSYTSWVFGGGTKLTVLG
On to B1, for which, in the assay with SARS-CoV-2 spike protein [1], the IC50 was ~0.2 µg/mL.

B2: 1028-25K (antibody, V domains shown)
VH: QVQLVESGGGVVQPGRSLRLSCAASEFTFSGYAMHWVRQAPGKGLEWVAVISYDGINKYYADSVKGRFTISRDNSKNTLYLQMSSLRAEDTAVYYCARDPDYGDEGAFDYWGQGTLVTVSS
VL: not shown
As for B2, the binding result in assay [2] and in assay [3] was “no binding (tested: 200 ng/ml)” each time.

B3: 1028-62L (antibody, V domains shown)
VH: QVQLQESGPGLVKPSGTLSLTCAVSGGSISSSNWWSWVRQPPGKGLEWIGEIYHSGSTNYNPSLKSRVTISVDKSNNQFSLKLSSVTAADTAVYYCARGWNYDYWGQGTLVTVSS
VL: QSALTQPASVSGSPGQSITISCTGTSSDVGSYNLVSWYQQHPGKAPKLMIYEGSKRPSGVSNRFSGSKSGNTASLTISGLQAEDEADYYCCSYAGSSTWVFGGGTKLTVLG
As for B3, the binding result in assay [4] is on record as “binds”; in assay [2], “no binding (tested: 200 ng/ml)”.

B4: 1028-87L (antibody, V domains shown)
VH: not shown
VL: QAGLTQPPSVSKGLRQTATLTCTGNSNNVGNQGAAWLQQHQGHPPKLLSYRNNNRPSGISERLSASRSGNTASLTITGLQPEDEADYYCSAWDSSLSAQVFGGGTKLTVLG
On to B4, for which the binding result in assay [2] and in assay [3] was “no binding (tested: 200 ng/ml)” each time.

B5: 1028-50K (antibody, V domains shown)
VH: EVQLVESGGGLVKPGGSLRLSCAASGFTFSSYIMNWVRQAPGKGLEWVSSISSSSYIYYADSVKGRFTISRDNAKNSLYLQMNSLRAEDTAVYYCARIVGATSYYYYGMDVWGQGTTVTVSS
VL: not shown
Consider B5, for which the binding result in assay [2] and in assay [3] was “no binding (tested: 200 ng/ml)” in each case.

B6: 1028-61L (antibody, V domains shown)
VH: EVQLVESGGGLVQPGGSLRLSCAASGIDVSSNYMSWVRQAPGKGLEWVSVIYSGGSTYYADAVRGRFTISRHNSKNTLYLQMNSLRAEDAAVYYCARDAQRYGMDVWGQGTTVTVSS
VL: SYVLTQPPSVSVAPGKTARITCGGNNIGSNTVHWYQQKPGQAPVLVIYYDSDRPSGIPERFSGSNSGNTATLTISRVEAGDEADYYCQLWDSSSDHVVFGGGTKLTVLG
B6: the binding result in assay [2] and in assay [3] was “no binding (tested: 200 ng/ml)” throughout. Besides, the IC50 with SARS-CoV-2 spike protein [5] was ~0.25 µg/mL.

B7: 1028-106K (antibody, V domains shown)
VH: QLQLQESGPGLVKPSETLSLTCTVSGGSISSSYHYWGWIRQPPGKGLEWIGTIYYSGSTYYNPSLKSRVTISVDTSKNQFSLKLSSVTAADTAVYYCARRGYSYDSSGDGVDYWGQGTLVTVSS
VL: DIQMTQSPSSLSASVGDRVTITCRASQGIRNDLGWYQQKPGKAPKRLIYAASSLQSGVPSRFSGSGSGTEFTLTISSLQPEDFATYYCLQHNSYPLTFGGGTKVEIKR
For the molecule B7, the binding result is given as “binds” in assay [4] and “no binding (tested: 200 ng/ml)” in assay [2].

B8: 1028-84K (antibody, V domains shown)
VH: QVQLVESGGGVVQPGRSLRLSCAASGFTFSNYAMHWVFQAPGMGLEWVAVISYDGINKYYADSVKGRFTISRDNSKNTLYLQMNSLRAEDTAVYYCASHRDDYVDSADAFDIWGQGTMVTVSS
VL: not shown
Consider B8, for which the binding result in assay [2] and in assay [3] was “no binding (tested: 200 ng/ml)” each time.

B9: 1028-30K (antibody, V domains shown)
VH: QVQLVQSGAEVKKPGSSVKVSCKASGGTFNTYAISWVRQAPGQGLEWMGGIIPIFGTANYAQKFQGRVTITADESTSTAYMELSSLRSEDTAVYYCARGEPGYCSGGNCYSSDYWGQGTLVTVSS
VL: not shown
As for B9, the binding result in assay [2] and in assay [3] was “no binding (tested: 200 ng/ml)” throughout.

B10: 1028-65K (antibody, V domains shown)
VH: QVQLVQSGAEVKKPGASVKVSCKASGYTFSSYYMHWVRQAPGQGLEWMGIINPSGGSTSYAQKFQGRVTMTRDTSTSTVYMELSSLRSEDTAVYFCAREGRAAAETDNNWFDPWGQGTLVTVSS
VL: not shown
Consider B10, for which the binding result in assay [2] and in assay [3] was “no binding (tested: 200 ng/ml)” throughout.

B11: 1028-29K (antibody, V domains shown)
VH: QVQLVQSGAEVKKPGASVKVSCKASGYTFTSYYMHWVRQAPGQGLEWMGIINPSGGSTSYAQKFQGRVTMTRDTSTSTVYMELSSLRSEDTAVYYCARDGTPDIVVVPAAPLDYWGQGTLVTVSS
VL: EIVLTQSPATLSLSPGERATLSCRASQSVSSYLAWYQQKPGQAPRLLIYDVSNRATGIPARFSGSGSGTDFTLTISSLEPEDFAVYYCQQRSNWPPVLTFGGGTKVEIKR
In the case of B11, the binding result is listed as “binds” in assay [4] and “no binding (tested: 200 ng/ml)” in assay [2].

B12: 1028-37K (antibody, V domains shown)
VH: QVQLQQSGPGLVKPSQTLSLTCDISGDSVSSNSVAWNWIRQSPSRGLEWLGRTYYRSKWYNDYAVSVKSRITINPDTSKNQFSLQLNSVTPEDTAVYYCASGGYQLLYDDAFDIWGQGTMVTVSS
VL: not shown
For the molecule B12, the binding result in assay [6] was “binds”; in assay [3] it was “no binding (tested: 200 ng/ml)”. Moreover, the IC50 with SARS-CoV-2 spike protein [5] was ~0.7 µg/mL.

B13: 1028-68L (antibody, V domains shown)
VH: QVQLVESGGGVVQPGRSLRLSCAASGFTFSSYAMHWVRQAPGKGLEWVAVISYDGSNKYYADSVKGRFTISRDNSKNTLYLQMNSLRAEDTAVYYCARADGSGWNYWGQGTLVTVSS
VL: SYELTQPPSVSVSPGQTARITCSGDPLPKQYAYWYQQKPGQAPVLVIYKDSERPSGIPERFSGSSSGTTVTLTISGVQAEDEADYYCQSADSSGTYGWEFGGGTKLTVLG
With B13, the binding result in assay [2] and in assay [3] was “no binding (tested: 200 ng/ml)” in each case.

B14: 0210-38L (antibody, V domains shown)
VH: EVQLVESGGGLVQPGGSLRLSCAASGFTFNSYWMSWVRQAPGKGLEWVADIKQDGSEKYYVDSVKGRFTISRDNAKNSLYLQMNSLRAEDTAVYYCARQLYYYGPIDYWGQGTLVTVSS
VL: NFMLTQPHSVSESPGKTVTISCTRSSGSIASNYVQWYQQRPGSSPTTVIYEDNQRPSGVPDRFSGSIDSSSNSASLTISGLKTEDEADYYCQSYDSNNRVFGGGTKLTVLG
B14: the IC50 in the assay with SARS-CoV-2 spike protein [1] is ~1.5 µg/mL.

B15: 1028-55K (antibody, V domains shown)
VH: EVQLVESGGGLVQPGGSLRLSCAASGFIVSSNYMSWVRQAPGKGLEWVSLIYSGGSTYYVDSVKGRFTISRDNTKNTLYLQMNSLRAEDTAVYYCARDLDVRGALDIWGQGTMVIVSS
VL: not shown
In the case of B15, the binding result in assay [2] and in assay [3] was “no binding (tested: 200 ng/ml)” each time. Also, in the assay with SARS-CoV-2 spike protein [5], the IC50 was ~0.3 µg/mL.

B16: 1028-164L (antibody, V domains shown)
VH: QVTLRESGPALVKPTQTLTLTCTFSGFSLSTSGMCVSWIRQPPGKALEWLALIDWDDDKYYSTSLKTRLTISKDTSKNQVVLTMTNMDPVDTATYYCARIPVEMATIGDYYYYGMDVWGQGTTVTVSS
VL: not shown
As to B16, the binding result in assay [4] is listed as “binds”; in assay [2] it was “no binding (tested: 200 ng/ml)”.

B17: 1028-05K (antibody, V domains shown)
VH: QVTLKESGPVLVKPTETLTLTCTVSGFSLSNARMGVSWIRQPPGKALEWLAHIFSNDEKSYSTSLKRRLTISKDTPKSQVVLTMTNMDPVDTATYYCARTLGFWSGEYYYYYMDVWGKGTTVTVSS
VL: EIVMTQSPATLSVSPGERATLSCRASQSVSSSYLAWYQQKPGQAPRLLIYGASTRATGIPARFSGSGSGTEFTLTISSLQSEDFAVYYCQHYNNWPPLFTFGPGTKVDIKR
Consider B17, for which the values for the binding result in assay [6] and in assay [3] were “binds” and “no binding (tested: 200 ng/ml)”, respectively. Besides, the IC50 in the assay with SARS-CoV-2 spike protein [5] was ≥ 10 µg/mL.

B18: 1028-121K (antibody, V domains shown)
VH: QVTLKESGPVLVKPTETLTLTCTVSGFSLSDARMGVSWIRQPPGKALEWLAHIFSNDEKSYNTSLKSRLTISKDTSKSQVVLTMTNMDPVDTATYYCARALGFWSGYYYYYYMDVWGKGTTVTVSS
VL: not shown
In the case of B18, the binding result in assay [6] is “binds”; in assay [3], “no binding (tested: 200 ng/ml)”. Moreover, the IC50 in the assay with SARS-CoV-2 spike protein [5] is ~7.5 µg/mL.

B19: 1028-137K (antibody, V domains shown)
VH: QVHLVESGGGVVQPGRSLRLSCAASGFTFNSYAMHWVRQAPGKGLEWVAVISYDGNNKYYADSVKGRFTISRDNSKNTLYLQMNSLRAEDTAVYYCARDDDSGSYLYYFDYWGQGTLVTVSS
VL: not shown
With B19, the binding result in assay [4] is recorded as “binds”; in assay [2], “no binding (tested: 200 ng/ml)”.

B20: 0210-28K (antibody, V domains shown)
VH: QMQLVQSGPEVKKPGTSVKVSCKASGFTFSISAVQWVRQARGQRLEWIGWIVVGSGNTNYAQKFQERVTITRDMSTSTAYMELSSLRFEDTAVYYCAAPYCGGDCSDGFDIWGQGTMVTVSS
VL: not shown
For B20, in assay [7], the “IC50, inhibition of pseudotype virus infection, 1st experiment” value was 8.4 ng/mL and the “IC50, inhibition of pseudotype virus infection, 2nd experiment” value is 30.3 ng/mL. Further, the concentration for half-maximal inhibition (IC50) in the assay with SARS-CoV-2 spike protein [1] is ~0.15 µg/mL.
